Reference: patent publication US20190300604A1 (ASCLEPIUMM TAIWAN, published 2019)

Biological target: T1, human Desmoglein2 (Dsg2) (human, UniProt Q14126 50-1118)
T1 construct: whole, on cells; also called Dsg2-expressing cells
T1 sequence (looked up): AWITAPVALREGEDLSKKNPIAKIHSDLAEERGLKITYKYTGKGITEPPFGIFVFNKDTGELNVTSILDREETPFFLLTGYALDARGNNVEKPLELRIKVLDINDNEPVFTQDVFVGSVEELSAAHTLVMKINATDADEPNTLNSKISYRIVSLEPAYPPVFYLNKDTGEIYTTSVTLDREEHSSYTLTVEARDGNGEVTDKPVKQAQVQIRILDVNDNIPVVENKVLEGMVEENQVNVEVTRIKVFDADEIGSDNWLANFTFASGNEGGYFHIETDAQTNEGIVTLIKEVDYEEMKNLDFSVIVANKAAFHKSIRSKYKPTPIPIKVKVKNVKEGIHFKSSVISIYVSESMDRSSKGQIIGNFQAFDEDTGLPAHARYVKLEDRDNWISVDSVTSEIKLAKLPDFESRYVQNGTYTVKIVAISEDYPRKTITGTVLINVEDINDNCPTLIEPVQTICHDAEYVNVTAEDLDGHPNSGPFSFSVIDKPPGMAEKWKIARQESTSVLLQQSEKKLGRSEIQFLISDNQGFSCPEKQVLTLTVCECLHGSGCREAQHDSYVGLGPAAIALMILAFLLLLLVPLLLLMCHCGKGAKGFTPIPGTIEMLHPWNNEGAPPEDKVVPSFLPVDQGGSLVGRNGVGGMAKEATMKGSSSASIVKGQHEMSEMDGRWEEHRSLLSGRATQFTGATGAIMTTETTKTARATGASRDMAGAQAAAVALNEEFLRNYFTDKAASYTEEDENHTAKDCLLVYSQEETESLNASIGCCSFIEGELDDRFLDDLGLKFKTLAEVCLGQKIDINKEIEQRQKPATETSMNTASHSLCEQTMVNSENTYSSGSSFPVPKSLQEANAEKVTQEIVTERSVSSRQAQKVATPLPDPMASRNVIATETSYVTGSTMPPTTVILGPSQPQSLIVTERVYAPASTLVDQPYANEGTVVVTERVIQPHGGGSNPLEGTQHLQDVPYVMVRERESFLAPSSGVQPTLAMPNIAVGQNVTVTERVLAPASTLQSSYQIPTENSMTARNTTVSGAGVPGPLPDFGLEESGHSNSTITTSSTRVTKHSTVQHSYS
Assay: flow cytometry and Western blotting, Dsg2 knockdown and Dsg2 over-expression cells

B1: Dsg2 monoclonal antibody 3D4 (antibody, V domains shown)
VH: QIQLVQSGPELKKPGETVKISCKASGYTFTNYGMNWVRQAPGKALKWMVWMNTNTGESIYAEEFKGRFVFSLDTSASTAYLQINNLNNEDTATYFCARYWDTYWGQGTTLTVSS
VL: DIKMTQSPSSMYASLGERVTITCKASQDINSYLSWFQQKPGKSPKTLIYRANRLVDGVPSRFSGSGSGQDFSLTISSLEYEDMGIYYCLQYDEFPYTFGGGTKLEIK
notes: Mouse hybridoma antibody from BALB/c mice, detected with anti-mouse IgG Fc-gamma specific antibody; also called mAb 3D4
binding result: binds

B2: Dsg2 monoclonal antibody 13D3 (antibody, V domains shown)
VH: QVQLQQPGAELVKPGASVKLSCKASGYTFTSYYMYWVKQRPGQGLEWIGGINPNNGGTNFNEKFKSKATLTVDKSSSTAYMQLRSLTSEDSAVYYCIRGSGYGNWGQGTLVTVSA
VL: DIKMTQSPSSMYASLGERVTITCKASQDINGYLSWFQQKPGKSPKTLIYRANRLVDGVPSRFSGSGSGQDYSLTISSLEYEDMGIYYCLQYDEFPYTFGGGTKLEIK
notes: Mouse hybridoma antibody from BALB/c mice, detected with anti-mouse IgG Fc-gamma specific antibody; also called mAb 13D3
binding result: binds
